We go through 50 sequences from the supplement of paper PMC10724198.

± gives the standard deviation of the averaged measurements.

The data set concerns Saccharomyces cerevisiae. Put plainly: protein stability index of tFT-peptide fusion (C-terminal peptide) (PSI (0-1 scale)); higher = more stable (slower turnover). The note with it: temperature: 30 C. The method, then: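 MPS profiling in S. cerevisiae of the yeast C-terminome library: the last 12 aa of each annotated ORF are fused to the C-terminus of a sfGFP-mCherry timer, after a GGGS linker. Cells are FACS-sorted into 8 mCherry/sfGFP bins and deep-sequenced. PSI runs from 0 (unstable) to 1 (stable); wild type and das1Δ backgrounds, two technical replicates each.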

[1] abbreviates: genetic background: das1 deletion.

KKKRGFLGLFGR [SRP68 C-terminal 12 aa]: the protein stability index runs as follows: under setting [1], 0.706 ± 0.021; (genetic background: wild type) 0.677 ± 0.0092.
As for KKLEGTIEYQKL [RPT4 C-terminal 12 aa], the protein stability index runs as follows: under setting [1], 0.708 ± 0.027; (genetic background: wild type) 0.702 ± 0.012.
KKLNFKLCQAFM [NUP85 C-terminal 12 aa]: the protein stability index reads like this: under setting [1], 0.673 ± 0.012; (genetic background: wild type) 0.6183 ± 0.006.
KKNGKISEKPKK [PDR15 C-terminal 12 aa]: the protein stability index under setting [1] was determined as 0.727 ± 0.02 and the protein stability index (genetic background: wild type) was determined as 0.677 ± 0.037.
On to KKNKSAIDGIFG [RMP1 C-terminal 12 aa], for which the protein stability index runs as follows: under setting [1], 0.7173 ± 0.0015; (genetic background: wild type) 0.694 ± 0.014.
KKPSSYVMVPRP [MRPL8 C-terminal 12 aa]: the protein stability index is, setting by setting: under setting [1], 0.708 ± 0.011; (genetic background: wild type) 0.6724 ± 0.002.
With KKQESDNDANSK [CMC2 C-terminal 12 aa], the protein stability index by setting is: under setting [1], 0.703 ± 0.014; (genetic background: wild type) 0.6755 ± 0.0052.
KKSKNRNTSLRP [SIP5 C-terminal 12 aa] gave a protein stability index under setting [1] of 0.726 ± 0.02 and a protein stability index (genetic background: wild type) of 0.689 ± 0.02.
On to “KLDEAEMQGLIM [YMR158C-A C-terminal 12 aa]”, for which the protein stability index turned out to be 0.69 ± 0.012 under setting [1] and 0.724 ± 0.041 (genetic background: wild type).
The matching figures for KLKRTITLPQLD [CIK1 C-terminal 12 aa]: 0.691 ± 0.022 and 0.761 ± 0.074.
As for KLSAPIFSILHS [APT2 C-terminal 12 aa], the protein stability index by setting is: under setting [1], 0.721 ± 0.0083; (genetic background: wild type) 0.504 ± 0.0051.
With “KLTIRIKQKTHL [YOR316C-A C-terminal 12 aa]”, the protein stability index by setting is: under setting [1], 0.702 ± 0.012; (genetic background: wild type) 0.6824 ± 0.0065.
As to KMGQSFNAAGKF [TIM10 C-terminal 12 aa], the protein stability index was determined as 0.692 ± 0.033 under setting [1] and 0.683 ± 0.0072 (genetic background: wild type).
In the same order, the values of KNFKTDLSSSSL [SMK1 C-terminal 12 aa] are 0.7 ± 0.0086 and 0.711 ± 0.014.
KNFYNRHTSPQL [YHL008C C-terminal 12 aa]: the protein stability index is, setting by setting: under setting [1], 0.737 ± 0.03; (genetic background: wild type) 0.679 ± 0.02.
As to KNKKNKKKGKKK [CHS5 C-terminal 12 aa], the protein stability index is 0.694 ± 0.048 under setting [1] and 0.696 ± 0.019 (genetic background: wild type).
On to KNLWEKFWAAVA [LYP1 C-terminal 12 aa], for which the protein stability index by setting is: under setting [1], 0.693 ± 0.0092; (genetic background: wild type) 0.28 ± 0.021.
Turning to KNLWHHKINNLN [RAM2 C-terminal 12 aa], the protein stability index worked out at 0.699 ± 0.017 under setting [1] and 0.166 ± 0.021 (genetic background: wild type).
In the case of KNRFSNGRWGRR [SLD2 C-terminal 12 aa], the protein stability index reads like this: under setting [1], 0.701 ± 0.036; (genetic background: wild type) 0.72 ± 0.015.
For the sequence KNRRRNTKKIAF [RLP24 C-terminal 12 aa], the protein stability index amounted to 0.705 ± 0.03 under setting [1] and 0.6678 ± 0.0055 (genetic background: wild type).
For KPEEEKETLQEE [PAF1 C-terminal 12 aa], the protein stability index is, setting by setting: under setting [1], 0.69 ± 0.046; (genetic background: wild type) 0.649 ± 0.031.
The matching figures for KPSSNNSINIKV [AHK1 C-terminal 12 aa]: 0.707 ± 0.033 and 0.743 ± 0.031.
Consider KQIVFEIPSETH [RPS7A C-terminal 12 aa], for which the protein stability index by setting is: under setting [1], 0.701 ± 0.013; (genetic background: wild type) 0.6789 ± 0.0028.
In the same order, the values of KQREKYAAVASK [SOP4 C-terminal 12 aa] are 0.692 ± 0.022 and 0.698 ± 0.043.
Consider KQSQRQVPHSIK [SPO21 C-terminal 12 aa], for which the protein stability index amounted to 0.7194 ± 0.0004 under setting [1] and 0.708 ± 0.011 (genetic background: wild type).
As for “KQSVQQQKTGNY [YHL009W-A C-terminal 12 aa]”, the protein stability index is 0.699 ± 0.018 under setting [1] and 0.663 ± 0.00095 (genetic background: wild type).
In turn, KRLGKKTVVTSR [DCC1 C-terminal 12 aa] came in with a protein stability index under setting [1] of 0.701 ± 0.011 and a protein stability index (genetic background: wild type) of 0.717 ± 0.055.
In the same order, the values of KRRNWRRTKMNI [RPL39 C-terminal 12 aa] are 0.682 ± 0.017 and 0.705 ± 0.04.
Take KSAKTAKASQEL [HTA2 C-terminal 12 aa]: the protein stability index runs as follows: under setting [1], 0.705 ± 0.017; (genetic background: wild type) 0.673 ± 0.023.
Turning to KSARSWVRSGRL [YPR053C C-terminal 12 aa], the protein stability index came to 0.80266 ± 0.00042 under setting [1] and 0.77 ± 0.013 (genetic background: wild type).
The matching figures for KSCDEDGQEDEA [TPA1 C-terminal 12 aa]: 0.693 ± 0.014 and 0.642 ± 0.011.
Turning to KSDLISNIRQKI [RBH1 C-terminal 12 aa], the protein stability index was determined as 0.716 ± 0.035 under setting [1] and 0.638 ± 0.037 (genetic background: wild type).
As for KSLRSSFGKKLI [PHS1 C-terminal 12 aa], the protein stability index runs as follows: under setting [1], 0.706 ± 0.052; (genetic background: wild type) 0.717 ± 0.046.
For the sequence KTFINNVINVYH [FRM2 C-terminal 12 aa], the protein stability index is 0.6589 ± 0.006 under setting [1] and 0.674 ± 0.018 (genetic background: wild type).
The matching figures for KTHTEYGYVMVA [YGR137W C-terminal 12 aa]: 0.618 ± 0.012 and 0.5401 ± 0.0042.
In turn, KTSLKITHRRVI [YGL117W C-terminal 12 aa] returned a protein stability index under setting [1] of 0.7424 ± 0.0067 and a protein stability index (genetic background: wild type) of 0.658 ± 0.0094.
As for KVSPAAAAKKAL [RPS26B C-terminal 12 aa], the protein stability index is, setting by setting: under setting [1], 0.684 ± 0.0089; (genetic background: wild type) 0.6696 ± 0.00082.
Take KVWVAGQQVYQI [GUD1 C-terminal 12 aa]: the protein stability index was 0.697 ± 0.012 under setting [1] and 0.6639 ± 0.0028 (genetic background: wild type).
With KWGMEDSPPPYH [MDM34 C-terminal 12 aa], the protein stability index turned out to be 0.734 ± 0.028 under setting [1] and 0.6942 ± 0.0043 (genetic background: wild type).
Take “KYCRVPLPENNR [YEL008C-A C-terminal 12 aa]”: the protein stability index is 0.709 ± 0.015 under setting [1] and 0.677 ± 0.068 (genetic background: wild type).
For KYFCDFLLDPEI [ECM14 C-terminal 12 aa], the protein stability index under setting [1] is 0.741 ± 0.0083 and the protein stability index (genetic background: wild type) came out at 0.719 ± 0.01.
With LANFSNEVAMNN [SWP82 C-terminal 12 aa], the protein stability index is, setting by setting: under setting [1], 0.696 ± 0.017; (genetic background: wild type) 0.738 ± 0.13.
LARTDVNFMPWF [TRA1 C-terminal 12 aa] registered a protein stability index under setting [1] of 0.72 ± 0.0086 and a protein stability index (genetic background: wild type) of 0.744 ± 0.031.
On to LCFSKDIQLDFQ [FIG4 C-terminal 12 aa], for which the protein stability index is, setting by setting: under setting [1], 0.714 ± 0.013; (genetic background: wild type) 0.672 ± 0.043.
For LDKIKTDDTYTS [FYV7 C-terminal 12 aa], the protein stability index runs as follows: under setting [1], 0.7 ± 0.024; (genetic background: wild type) 0.6966 ± 0.0045.
The matching figures for LDLQNQNKKNLW [PIN4 C-terminal 12 aa]: 0.707 ± 0.02 and 0.707 ± 0.023.
In the same order, the values of LEDQDGSLYLNY [PFU1 C-terminal 12 aa] are 0.712 ± 0.011 and 0.662 ± 0.025.
In the same order, the values of LEHMLEGKEQDE [PRM5 C-terminal 12 aa] are 0.707 ± 0.025 and 0.751 ± 0.036.
For the sequence LEHYSLSTFVCC [YAL045C C-terminal 12 aa], the protein stability index by setting is: under setting [1], 0.326 ± 0.032; (genetic background: wild type) 0.3476 ± 0.0029.
The matching figures for LESTHDKAIAGK [MNN2 C-terminal 12 aa]: 0.6974 ± 0.0069 and 0.684 ± 0.021.
